Literature values in publication doi:10.1101/2021.01.30.427993.

Test system: Glu165
Settings: not stated ('in the active site')

Substance: Triosephosphate isomerase (TIM)
- pKa: 3.9
